In article PMC3328597:

Molecular target: T1, dSLBP P231G RPD (Drosophila, UniProt Q9VAN6 173-276, P231G)
T1 sequence: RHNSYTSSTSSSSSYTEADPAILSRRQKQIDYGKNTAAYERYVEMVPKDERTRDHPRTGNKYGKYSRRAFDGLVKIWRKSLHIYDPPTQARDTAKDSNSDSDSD
Assay: NMR

B1: SL28-CG (structured_RNA)
RNA: GGCCAAAGGCCCUUUUCAGGGCCACCCA
  binding result: binds
